{"source": "patent US20110081663A1", "about": "(KYOTO UNIVERSITY, published 2011)", "binders": {"B1": {"name": "GLP-1 receptors of the pancreatic beta-cells (MIP-GFP mice) (receptor)", "chain": "GPRPQGTTVSLSETVQKWREYRRQCQRFLTEAPLLATGLFCNRTFDDYACWPDGPPGSFVNVSCPWYLPWASSVLQGHVYRFCTAEGLWLHKDNSSLPWRDLSECEESKRGERNFPEEQLLSLYIIYTVGYALSFSALVIASAILVGFRHLHCTRNYIHLNLFASFILRALSVFIKDAALKWMYSTAAQQHQWDGLLSYQDSLGCRLVFLLMQYCVAANYYWLLVEGVYLYTLLAFSVFSEQRIFKLYLSIGWGVPLLFVIPWGIVKYLYEDEGCWTRNSNMNYWLIIRLPILFAIGVNFLIFIRVICIVVSKLKANLMCKTDIKCRLAKSTLTLIPLLGTHEVIFAFVMDEHARGTLRFIKLFTELSFTSFQGLMVAILYCFVNNEVQMEFRKCWERWRLEHLNIQRDCSMKPLKCPTSSVSSGATVGSSVYAATCQSSYS", "notes": "whole, on cells; Endogenous receptor in mouse pancreas; also called glucagon-like peptide-1 receptor"}}, "target": "molecular probe of the formula (11) (SEQ ID NO. 11), exendin-4(1-39)-Lys40 with the Lys40 side chain labeled …", "assay": "ex vivo autoradiography of pancreas sections of MIP-GFP mice after i.v. injection; radioactivity co-localised with the GFP signal of beta-cells", "data": [{"binder": "B1", "values": [{"measurement": "binding result", "result": "binds"}]}]}
